The results in this text go back to article PMC3035937 (Journal of molecular biology, 2010).

B2: purified SpHst4 (SpHst4-His) (natural protein, S. pombe, UniProt Q9UR39 1-415, looked up)
chain: MKVEEHVPLIQESRKRKCQSSENASKRQQLLSKLPLRLHTGNENVDLSPLVSAIRKAKRIVVVTGAGISCDAGIPDFRSSEGLFSSLRAEYKLNCSGKELFDGSVYRDLKSVNIFHAMIRKLHMLSNNARPTDFHLFLSQLAQESKLLRLYTQNIDFLETRLEGLQTCIPLPQSAPWPTTIPLHGTLEVVSCTRCSFLKKFNPDIFDRNGVTVCPDCKTENEVRRIAGKRSVIEGCLRPRIVLYNEIHPDSESIGSVCSQDLKSRPDCLIVAGTSCKIPGVKRIIKEMSNCVHKQKGNVIWLNYDEPTKDFLNLCDLVVQGDLQIAIRRLKPLLDAPSWKLKSHSAKRTSKQKSSEQTKITSSTKITKAIGLNTKSNDSSKKDNTSFQLHQVLNSIEIPKVEIKQEVEYATPSPL

Assay [1] has as its target B2. Briefly: pull-down.
In assay [2] the target is T1, GST-SpRad9 (S. pombe, UniProt P26306 1-426).
T1 sequence (looked up): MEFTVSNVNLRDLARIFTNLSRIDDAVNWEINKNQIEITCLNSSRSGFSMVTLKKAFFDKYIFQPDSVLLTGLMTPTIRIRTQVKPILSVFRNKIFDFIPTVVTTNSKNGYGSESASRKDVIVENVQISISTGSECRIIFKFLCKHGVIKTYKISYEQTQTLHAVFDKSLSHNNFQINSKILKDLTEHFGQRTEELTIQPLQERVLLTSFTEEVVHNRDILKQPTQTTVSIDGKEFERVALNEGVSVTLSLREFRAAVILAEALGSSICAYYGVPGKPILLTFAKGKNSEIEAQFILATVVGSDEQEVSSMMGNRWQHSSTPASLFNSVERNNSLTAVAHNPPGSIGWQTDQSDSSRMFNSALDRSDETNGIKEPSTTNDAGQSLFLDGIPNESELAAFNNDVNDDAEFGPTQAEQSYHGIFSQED
Briefly: pull-down.

B1: GST-SpRad1 (natural protein, S. pombe, UniProt P22193 1-323, looked up)
chain: MFQAETVCLKQIQSTLRCIDFSKECTIEITSRGLRFAVEESQSLQAHAFLDKSLFQTFNFQGDSDGDTYMFQTMISPLLQSLSIYTDGKERISTSAWDQPTVNIMHKRGVICKVQYNGPGCPFIWEVEEMAGYATACELLTMECEDDVDINRLASTLCTKIIMKSNWLYDALVELDNNMGENLIIHTSSQKSTFLLRCVGALSTTEIEYPNEKSVLESFETDSENTYSYRFSLIRHALKALQVGSKVNLRIDENGTLSIQIMLVGQEGLCTFVDFCIVPLDLVSEDEEEDEEEEPAESNQSDNNVLRNDPNYRGDAETEDEDS
For the molecule B1, in assay [1], the binding result is reported as “binds”.
B2: in assay [2], the binding result is “binds”.

B3: GST-SpHus1 (natural protein, S. pombe, UniProt P78955 1-287, looked up)
chain: MRFKTRISNLYTLTRLVQALDKIGRFCWLRLMPETVNFVIVPDFRMTQVWSVLEVETIFEDYVVQSNADNVINLEVPIDNFYKALRSAANASDSTVRLSKKNNQPLLSLSTTWSGRAFGSNIVTHNIPVRVLSQSYVSVIKEPTAPEPDCHIFLPQLNFLRHVVDKYKSLSDRIIMSANMSGELQLSVNIPSARVSTKWKGLENPELDPSQVEDISRHPSQTRAPEEFVHMRLDSKDLVNMLKISSVAKRVIACFCEGHALVLYVYITDPEDEHTAVLTYYISTYVD
Consider B3, for which, in assay [1], the binding result is on record as “binds”.
